Here are results for eight molecules from patent publication US20150004155A1 (AIMM THERAPEUTICS B V, published 2015).

For assay [1], the target named is T1, purified recombinant RSV-Ga protein (Sino Biologics) (Respiratory Syncytial Virus subtype A, …, UniProt P03423 64-298).
T1 sequence: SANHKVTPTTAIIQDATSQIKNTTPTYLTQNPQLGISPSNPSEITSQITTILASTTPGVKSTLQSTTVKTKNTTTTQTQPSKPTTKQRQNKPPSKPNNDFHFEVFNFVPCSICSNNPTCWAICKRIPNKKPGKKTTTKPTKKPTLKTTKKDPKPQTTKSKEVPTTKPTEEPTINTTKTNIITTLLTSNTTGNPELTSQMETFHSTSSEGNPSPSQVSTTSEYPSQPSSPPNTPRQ
Kind of assay: SPR (IBIS MX96), IgG captured on anti-human IgG, RSV Ga injected.

For assay [2], the target named is T2, RSV G protein in denatured and boiled supernatant of RSV A2 infected HEp2 cells (western blot) (Respiratory Syncytial Virus subtype A, …, UniProt P03423 66-298).
T2 sequence: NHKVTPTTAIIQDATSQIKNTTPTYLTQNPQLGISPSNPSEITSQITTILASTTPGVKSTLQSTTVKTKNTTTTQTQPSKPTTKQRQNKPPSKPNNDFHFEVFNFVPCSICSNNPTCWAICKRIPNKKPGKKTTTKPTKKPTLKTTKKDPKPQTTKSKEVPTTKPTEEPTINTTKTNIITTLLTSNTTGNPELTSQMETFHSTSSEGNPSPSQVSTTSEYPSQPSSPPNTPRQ
Briefly: western blot, denatured RSV A2 supernatant. For orientation: Immunoblotting shows a protein as a band on a membrane.

The target of assay [3] is T3, purified recombinant RSV-Gb protein (Sino Biologics) (Respiratory Syncytial Virus subtype B, …, UniProt O36633 67-299).
T3 sequence: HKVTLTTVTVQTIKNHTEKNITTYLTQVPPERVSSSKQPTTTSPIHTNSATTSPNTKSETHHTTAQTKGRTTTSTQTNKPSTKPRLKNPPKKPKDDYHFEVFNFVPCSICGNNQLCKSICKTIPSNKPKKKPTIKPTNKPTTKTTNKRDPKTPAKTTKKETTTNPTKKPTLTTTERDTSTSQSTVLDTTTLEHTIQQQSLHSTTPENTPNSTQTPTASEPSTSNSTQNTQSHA
Kind of assay: SPR (IBIS MX96), IgG captured on anti-human IgG, RSV Gb injected.

Assay [4] deals with T3, purified recombinant RSV-Gb protein …. Briefly: SPR (IBIS MX96), IgG captured on anti-human IgG.
For assay [5], the target named is T4, RSV G protein of RSV A2 (native, on RSV A2 infected HEp2 cells / virus) (Respiratory Syncytial Virus subtype A, …, UniProt P03423 1-298).
T4 sequence: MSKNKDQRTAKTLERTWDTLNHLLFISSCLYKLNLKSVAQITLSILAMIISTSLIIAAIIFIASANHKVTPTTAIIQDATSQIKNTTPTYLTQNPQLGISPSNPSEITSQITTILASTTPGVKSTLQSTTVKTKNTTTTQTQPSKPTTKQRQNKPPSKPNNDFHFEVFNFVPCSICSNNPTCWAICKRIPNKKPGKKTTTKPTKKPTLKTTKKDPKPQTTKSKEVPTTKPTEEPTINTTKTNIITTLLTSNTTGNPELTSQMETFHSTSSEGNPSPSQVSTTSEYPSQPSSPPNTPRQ
Kind of assay: FACS, RSV infected cells, anti-huIgG-PE. A general note: In flow cytometry, cells or beads pass a laser one at a time.

B1: AT42 (antibody, V domains shown)
VH: QVQLQESGPGLVQPSETLSLTCTVSGDSITSNVYYWGWIRQPPGKGLEWIGSIFHSGITHYTPSLNSRVTISVDTSKNQFSLRLSSATAADTAVYYCARHWAGLYFDSWGQGALVAVSS
VL: EIVLTQSPGTLSLSPGERATLSCRASQTVSSSHLAWYQQKPGQAPRLLIHGSSSRATGIPERFSGSGSGPDFTLTISRLKPEDFAVYYCQYYGDSPGSFGEGTKVEIKR
As usually defined, the Kd is the equilibrium constant for the complex coming apart. In general, koff refers to the first-order rate constant of dissociation. Broadly, the kon is the rate constant with which the complex forms. Consider B1, for which, in assay [1], the Kd stood at 1.3 nM, the koff amounted to 0.00076 s⁻¹ and the kon turned out to be 640000 M⁻¹ s⁻¹. For the same molecule, the binding result in assay [2] is “no binding”. Moreover, in assay [3], the Kd stood at 0.3 nM, the koff worked out at 0.0001 s⁻¹ and the kon is 400000 M⁻¹ s⁻¹.

B2: AT46 (antibody, V domains shown)
VH: EVQLVESGGGLVQPGGSLRLSCAASGFTFSRYVMSWVRQAPGRGLEWVSSITGSGATTYYADSVKGRFTISRDNSKNTVYLQMNRLRAEDTAIYYCANCGRAGQIFDDWGQGTLVTVSS
VL: QPVLTQSPSASASLGASVKLTCTLSSGHRNYAIAWHQQRPEKGPRYLMKIYTNGSHYPGDGTPDRFSGSSSGAERYLTISSLQSEDEADYYCQTWGAGIWVFGGGTKLTVLG
In the case of B2, in assay [4], the binding result is reported as “no binding”.

B3: AT49 (antibody, V domains shown)
VH: QVLLVQSGAEIKKPGSSVKISCKASGGTFSSLALNWVRQAPGQGLQWMGGIIPLFGTQNYAQKFQGRVTITADESTSTAYMELSGLRPEDTAVYYCALFLWFGDQTSDDGFDVWGQGTVVTVSS
VL: DIVMTQSPLSLTVTPGEPASISCRSSQSLLHGNGYKYLHWYLQKPGQSPQLLIYLGSNRASGVPARFSGSGSDTDFTLKISTVETEDVGVYYCMQALQSPTFGQGTKVEIKR
With B3, in assay [1], the Kd worked out at 0.1 nM, the koff came to 3e-05 s⁻¹ and the kon came out at 220000 M⁻¹ s⁻¹. Also, in assay [3], the Kd was determined as 0.5 nM, the koff came out at 5e-05 s⁻¹ and the kon was found to be 120000 M⁻¹ s⁻¹.

B4: AT40 (antibody, V domains shown)
VH: QVQLVESGGGVVQPGMSHRLSCAASTLIFDRHALHWVRQAPGAGLEWVAILSYDGTTDYYADSVKGRFTVSRDTSKNTVFLQMNGLRPQDTAVYYCARGRALDDFADYGGYYFDYWGQGILVTVSS
VL: DIQMTQSPSSVSASVGDKVTITCRASQGISTWLAWYQQKPGKAPALLIYSASRLQSGVPSRFSGSGSGTDFTLTISSLQPEDYATYYCQQANTFPFTFGPGTKVDIKR
In the case of B4, in assay [1], the Kd was 0.2 nM, the koff turned out to be 6e-05 s⁻¹ and the kon is 350000 M⁻¹ s⁻¹. For the same molecule, in assay [3], the Kd is 0.1 nM, the koff is 3e-05 s⁻¹ and the kon came out at 340000 M⁻¹ s⁻¹.

B5: AT36 (antibody, V domains shown)
VH: QVQVVQSGAEVKKPGASVKVSCKTSGYNFIDHSVSWVRQAPGQGLEWMGWISPYNHRTVYAEKFQGRVTMTTDTSTRTVSMELRRLTSDDTAVYFCARDRVQQGEGNFFDHWGQGTPVTVTS
VL: DIVMTQSPDSLAVSLGERATINCKSSQSLLHSSNNKIYLAWYQQKPGQPPKLLLYWASTRESGVPDRFTGSGSGTDFTLTINSLQAEDVAVYYCQQYYTTHPTFGQGTRLEIKR
Take B5: the binding result in assay [5] is listed as “binds”.

B6: AT34 (antibody, V domains shown)
VH: QVQLMESGGGVVQPGKSLRLSCAASGFTFSHYGMHWVRQAPGKGLEWVAVISYDGDKKYYADSVKGRFTISRDNSKNTLHLHMNSLRHEDTAVYFCASQGAKGGHELSFYCALDVWGQGTTVAVSS
VL: DIQMTQSPSTLSASVGDRVTITCRASQGIGSWLAWYQQKPGKAPKLLIYNASGLESGVPSGFSGSGSGTEFTLTISSLQPDDSATYYCQQYNSHTWTFGQGTKVEFKR
Turning to B6, the binding result in assay [5] is recorded as “binds”.

B7: AT32 (antibody, V domains shown)
VH: QVQLVQSGAEMKKPGASVKVSCQVAGYTLTELSIHWVRQTPGNGLEWMGGFEPEDGEYIYPQKSQGRVTMTEDTSTGTAYMELRSLRSDDTAVYYCAAEARYCDNSRCSPNFDHWGQGTLVAVSS
VL: DIVMTQSPDSLAVSLGERATFSCKSSQSVLYDSNNKNYLAWYQQRPGQPPKLLIYWASTRESGVPDRFSGSGSGTDFTLTISSLQPEDVAVYYCQQYYDPLITFGQGTRLEIKR
For B7, in assay [1], the Kd was 0.6 nM, the koff came out at 0.00043 s⁻¹ and the kon was determined as 750000 M⁻¹ s⁻¹.

B8: AT44 (antibody, V domains shown)
VH: QVQLQASGPGLVKPSETLSLTCNVSGYSVSSGHYWAWVRQSPGKGLEWIGGIHHSGSTYTNPPLKSRVSISIDTSKNQFSLRLTSVTAADTAVYFCARDLYDLSTGPFWFDPWGQGTLVTVSS
VL: EIVMTQSPATLSVSPGERVTLSCRASQSVSTKVVWYQQKFGQAPRLLIYGASTRATGIPVRFSGSGSGTEFTLTISSLQSEDLAVYFCQQYNKWPMYTFGQGTKLEIKR
For the molecule B8, in assay [1], the Kd is 0.1 nM, the koff turned out to be 3e-05 s⁻¹ and the kon was 350000 M⁻¹ s⁻¹. Besides, in assay [3], the Kd was determined as 0.1 nM, the koff came to 4e-05 s⁻¹ and the kon worked out at 340000 M⁻¹ s⁻¹.
